Experimental data published in PMC9606946, “Programmed Aptamer Screening, Characterization, and Rapid Detection for α-Conotoxin MI”.
“And” between values parts separate entries of the source, which are not always exact repeats. Identical values can stand only once. Where no end group is shown, it is not given here.

B1: MBMI-08 (ssDNA)
DNA: ATTGGCACTCCACGCATAGGCAACGGGGGGGTGGGGAGAGAAGGGTTGAGTGACAATTTGCCTATGCGTGCTACCGTGAA
B2: MBMI-03 (ssDNA)
DNA: ATTGGCACTCCACGCATAGGGGCGCTTGTGGTGTAAGGGTTGGGTATATGTCGTAATAGGCCTATGCGTGCTACCGTGAA
B3: MBMI-39 (ssDNA)
DNA: ATTGGCACTCCACGCATAGGGTAGGGGATTTAAGGAGGGGCCTTAGGAGGGGGGGGGTAACCTATGCGTGCTACCGTGAA
B4: MBMI-02 (ssDNA)
DNA: ATTGGCACTCCACGCATAGGATTTGGGTTTCGGGATAAGGGGCAAAAGGACAGGTTTTGTCCTATGCGTGCTACCGTGAA
B5: MBMI-22 (ssDNA)
DNA: ATTGGCACTCCACGCATAGGCAAGAAGGGGGAGGGTGGTATGTGTCGGGGGGAGGGGTGGCCTATGCGTGCTACCGTGAA
B6: MBMI-92 (ssDNA)
DNA: ATTGGCACTCCACGCATAGGCTCGCGGAGGGAGGGGTTTTGGGGGGCGGGATGGTATTGGCCTATGCGTGCTACCGTGAA
B7: MBMI-51 (ssDNA)
DNA: ATTGGCACTCCACGCATAGGAAGGTGGAATCGGAGGGGGTGCTTGGGTGGGGGTGGGATTCCTATGCGTGCTACCGTGAA
B8: MBMI-94 (ssDNA)
DNA: ATTGGCACTCCACGCATAGGAGCGGGGTTGGTTTGCGGGAGGGGGGGTGGAGGTAAGCTCCCTATGCGTGCTACCGTGAA
B9: MBMI-01 (ssDNA)
DNA: ATTGGCACTCCACGCATAGGTTTGGGGATGGGCAACGGTAAAAAGGGTCAAAAGGCTTTTCCTATGCGTGCTACCGTGAA

Biological target: T1, alpha-conotoxin MI (CTX-MI) (Conus magus, UniProt P01521 1-14, disulfide (positions not given here); not fully specified; also: two disulfides as in P01521)
T1 chain: GRCCHPACGKNYSC-NH2
Assay: BLI
Details: protein: commercial; tags: none; label: biotin
ATTTGGGTTTCGGGATAAGGGGCAAAAGGACAGGTTTTGT (ssDNA) [MBMI-02c] was tested, and the Kd was 1290 nM.
With CTCGCGGAGGGAGGGGTTTTGGGGGGCGGGATGGTATTGG (ssDNA) [MBMI-92c] the Kd was 1320 nM.
B1 was tested, and the Kd was 12000 nM.
B2 gave a Kd of 3490 nM.
With B3 the Kd was 430 nM.
In the case of B4, the Kd is reported as 2210 nM.
Work on B5 yielded a Kd of 21200 nM.
For B6, the Kd was 260 nM.
Binder B7 has a Kd of 14000 nM.
Binder B8 has a Kd of 2330 nM.
B9 was tested, and the Kd was 850 nM.

Same assay, conditions: protein: commercial; tags: none; label: biotin; antiparallel G-quadruplex
With TTTGGGGATGGGCAACGGTAAAAAGGGTCAAAAGGCTTTT (structured_DNA) [MBMI-01c] the Kd was 870 nM and 729 nM.

Same assay, conditions: protein: commercial; tags: none; label: biotin; remaining predicted GQ core A
TTTGGCCATGGCCAACGGTAAAAAGGCTCAAAACCCTTTT (ssDNA) [M2] showed a Kd of 741 nM.

Same assay, conditions: protein: commercial; tags: none; label: biotin; remaining predicted GQ cores A,B
TTTGGGGATGGGCAACGGTAAAAAGGGTCAAAACCCTTTT (ssDNA) [M3] showed a Kd of 1560 nM.

Same assay, conditions: protein: commercial; tags: none; label: biotin; remaining predicted GQ cores C,D
Work on TTTCCGGATGGGCAACGGTAAAAAGGGTCAAAAGGCTTTT (ssDNA) [M1] yielded a Kd of 1520 nM.
